How the values were obtained:
[1] = target: T1, huNABA-avi-his (hybrid protein N-A1-B3-A2: N and A1 domains of human BGP, B3 domain of human CEA, A2 domain … (human, biotinylated at the avi tag (in vivo, co-transfected biotin ligase))); assay: Proteon SPR, antibody analyte on biotinylated NABA (Neutravidin chip)
T1 construct: also called NABA-avi-his reagent; biotinylated NABA
T1 chain: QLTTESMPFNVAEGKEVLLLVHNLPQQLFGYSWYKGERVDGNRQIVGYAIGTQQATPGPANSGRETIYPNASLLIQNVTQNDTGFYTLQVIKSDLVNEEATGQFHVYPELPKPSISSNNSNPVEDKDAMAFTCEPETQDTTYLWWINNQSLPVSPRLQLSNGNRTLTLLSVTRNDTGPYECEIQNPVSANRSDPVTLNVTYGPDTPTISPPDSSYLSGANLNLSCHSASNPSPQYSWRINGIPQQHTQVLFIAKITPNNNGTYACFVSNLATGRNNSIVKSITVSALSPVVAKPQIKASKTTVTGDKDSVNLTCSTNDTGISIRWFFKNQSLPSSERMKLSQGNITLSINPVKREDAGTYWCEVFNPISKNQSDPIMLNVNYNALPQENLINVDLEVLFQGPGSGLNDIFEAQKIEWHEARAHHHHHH
Description: (§1) Shown in FIG. 22 are Proteon (Biacore) sensorgrams obtained for the binding of the CDR-H3 antibody variants to the CEA antigen-harbouring chimeric protein NABA. […] The affinity matured precursor clone 5HFF12 and the parental antibody CH7A were included for direct comparison. All antibodies tested in this assay had 2F1 as the light chain. […] The relative affinity of each, measured in the bivalent form, is as follows: 5HFF12>CH7A (Y98A/D99Y)>CH7A (Y98A)>CH7A>CH7A (E102Q)>CH7A (D99Y)>CH7A (D99H)>CH7A (A103T)>CH7A (V101F)>CH7A (W95Y).

[2] = target: T1, huNABA-avi-his (hybrid protein …); assay: Proteon SPR, antibody analyte on biotinylated NABA (Neutravidin chip); column Ka (M)
Description: as §1

[3] = target: T1, huNABA-avi-his (hybrid protein …); assay: Biacore, column Affinity, CDR-H3 rows; antigen not named on the sheet, NABA-avi-his per paragraph 230
[4] = target: T1, huNABA-avi-his (hybrid protein …); assay: Biacore, Fab on immobilized NABA-avi-his; column Monovalent Affinity
[5] = target: T2, human carcinoembryonic antigen (CEA), membrane-bound on cells (human, UniProt P06731 35-685); assay: FACS on MKN45 cells
T2 construct: whole, on cells; also called CEACAM-5; CD66e
T2 sequence (looked up): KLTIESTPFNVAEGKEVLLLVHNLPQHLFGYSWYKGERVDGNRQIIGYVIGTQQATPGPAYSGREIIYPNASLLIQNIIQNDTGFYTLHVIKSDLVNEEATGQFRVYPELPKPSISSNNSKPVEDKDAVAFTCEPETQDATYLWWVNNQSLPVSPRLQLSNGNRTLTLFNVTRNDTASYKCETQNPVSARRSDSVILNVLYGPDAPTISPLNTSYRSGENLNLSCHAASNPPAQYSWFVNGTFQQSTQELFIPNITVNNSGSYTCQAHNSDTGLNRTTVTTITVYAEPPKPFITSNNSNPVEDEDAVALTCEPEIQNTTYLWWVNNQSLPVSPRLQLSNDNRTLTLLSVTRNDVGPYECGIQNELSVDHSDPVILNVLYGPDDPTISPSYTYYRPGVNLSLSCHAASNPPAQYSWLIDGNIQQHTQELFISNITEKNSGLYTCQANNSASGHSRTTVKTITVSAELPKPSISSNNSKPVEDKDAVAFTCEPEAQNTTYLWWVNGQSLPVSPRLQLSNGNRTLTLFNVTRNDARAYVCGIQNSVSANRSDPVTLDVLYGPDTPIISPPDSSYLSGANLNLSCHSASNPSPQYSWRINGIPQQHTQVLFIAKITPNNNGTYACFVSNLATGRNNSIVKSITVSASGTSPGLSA

[6] = target: T1, huNABA-avi-his (hybrid protein …); assay: Proteon SPR, antibody analyte on biotinylated NABA (Neutravidin chip); column Ka (M)
[7] = target: T1, huNABA-avi-his (hybrid protein …); assay: Proteon SPR, antibody analyte on biotinylated NABA (Neutravidin chip)
[8] = target: T1, huNABA-avi-his (hybrid protein …); assay: Biacore, column Affinity, CDR-L1 and CDR-L2 rows; antigen not named on the sheet, NABA-avi-his per paragraph 230

B1: antibody with heavy chain CH7A (Y98A) and light chain 2F1 (antibody, V domains shown)
VH: QVQLVQSGSELKKPGASVKVSCKASGYTFTEFGMNWVRQAPGQGLEWMGWINTKTGEATYVEEFKGRFVFSLDTSVSTAYLQISSLKAEDTAVYYCARWDFADYVEAMDYWGQGTTVTVSS
VL: DIQMTQSPSSLSASVGDRVTITCKASAAVGTYVAWYQQKPGKAPKLLIYSASYRKRGVPSRFSGSGSGTDFTLTISSLQPEDFATYYCHQYYTYPLFTFGQGTKLEIKR
notes: Bivalent form
Kd [1]: 0.52 nM
kon [2]: 132000 M⁻¹ s⁻¹

B2: 3E1 (Fab, V domains shown)
VH: QVQLVQSGSELKKPGASVKVSCKASGYTFTEFGMNWVRQAPGQGLEWMGWINTKTGEATYVEEFKGRFVFSLDTSVSTAYLQISSLKAEDTAVYYCARWDFVDYVEAMDYWGQGTTVTVSS
VL: DIQMTQSPSSLSASVGDRVTITCKASQNVGTNVAWYQQKPGKAPKLLIYSASYRYSGVPSRFSGSGSGTDFTLTISSLQPEDFATYYCHQYYTYPLFTFGQGTKLEIK
Kd [3]: 1890 nM

B3: 2D7 (Fab, V domains shown)
VH: QVQLVQSGSELKKPGASVKVSCKASGYTFTEFGMNWVRQAPGQGLEWMGWINTKTGEATYVEEFKGRFVFSLDTSVSTAYLQISSLKAEDTAVYYCARWDFYWYVEAMDYWGQGTTVTVSS
VL: DIQMTQSPSSLSASVGDRVTITCKASQNVGTNVAWYQQKPGKAPKLLIYSASYRYSGVPSRFSGSGSGTDFTLTISSLQPEDFATYYCHQYYTYPLFTFGQGTKLEIK
Kd [3]: 746 nM

B4: H3 Full (5) 28 (Fab, V domains shown)
VH: QVQLVQSGSELKKPGASVKVSCKASGYTFTEFGMNWVRQAPGQGLEWMGWINTKTGEATYVEEFKGRFVFSLDTSVSTAYLQISSLKAEDTAVYYCARWDFFYYVQTMDYWGQGTTVTVSS
VL: DIQMTQSPSSLSASVGDRVTITCKASQNVGTNVAWYQQKPGKAPKLLIYSASYRYSGVPSRFSGSGSGTDFTLTISSLQPEDFATYYCHQYYTYPLFTFGQGTKLEIK
Kd [3]: 81 nM

B5: H3 Full (5) 8 (Fab, V domains shown)
VH: QVQLVQSGSELKKPGASVKVSCKASGYTFTEFGMNWVRQAPGQGLEWMGWINTKTGEATYVEEFKGRFVFSLDTSVSTAYLQISSLKAEDTAVYYCARWDFFEYFKTMDYWGQGTTVTVSS
VL: DIQMTQSPSSLSASVGDRVTITCKASQNVGTNVAWYQQKPGKAPKLLIYSASYRYSGVPSRFSGSGSGTDFTLTISSLQPEDFATYYCHQYYTYPLFTFGQGTKLEIK
Kd [3]: 51 nM
Kd [4]: 51 nM
koff [4]: 0.0014 s⁻¹
kon [4]: 27300 M⁻¹ s⁻¹

B6: anti-CEA antibody with heavy chain CH1A1 and light chain 2F1 (antibody, V domains shown)
VH: QVQLVQSGAEVKKPGASVKVSCKASGYTFTEFGMNWVRQAPGQGLEWMGWINTKTGEATYVEEFKGRVTFTLDTSTSTAYMELRSLRSDDTAVYYCARWDFYDYVEAMDYWGQGTTVTVSS
VL: DIQMTQSPSSLSASVGDRVTITCKASAAVGTYVAWYQQKPGKAPKLLIYSASYRKRGVPSRFSGSGSGTDFTLTISSLQPEDFATYYCHQYYTYPLFTFGQGTKLEIKR
notes: CH1A with M69F/T71L double point mutation; also called precursor clone CH1A1
EC50 (read off the curve) [5]: ~1 µg/mL
kon [6]: 81900 M⁻¹ s⁻¹
Kd [7]: 4.24 nM

B7: pAC23 (2F11) (Fab, V domains shown)
VH: QVQLVQSGSELKKPGASVKVSCKASGYTFTEFGMNWVRQAPGQGLEWMGWINTKTGEATYVEEFKGRFVFSLDTSVSTAYLQISSLKAEDTAVYYCARWDFYDYVEAMDYWGQGTTVTVSS
VL: DIQMTQSPSSLSASVGDRVTITCKASQIASTNVAWYQQKPGKAPKLLIYWASYRYSGVPSRFSGSGSGTDFTLTISSLQPEDFATYYCHQYYTYPLFTFGQGTKLEIK
Kd [8]: 290 nM

B8: anti-CEA antibody with heavy chain CH1A1A and light chain 2F1 (antibody, V domains shown)
VH: QVQLVQSGAEVKKPGASVKVSCKASGYTFTEFGMNWVRQAPGQGLEWMGWINTKTGEATYVEEFKGRVTFTTDTSTSTAYMELRSLRSDDTAVYYCARWDFYDYVEAMDYWGQGTTVTVSS
VL: DIQMTQSPSSLSASVGDRVTITCKASAAVGTYVAWYQQKPGKAPKLLIYSASYRKRGVPSRFSGSGSGTDFTLTISSLQPEDFATYYCHQYYTYPLFTFGQGTKLEIKR
EC50 (read off the curve) [5]: ~1 µg/mL
kon [6]: 81800 M⁻¹ s⁻¹
Kd [7]: 5.91 nM

B9: pAC19 (2C6) (Fab, V domains shown)
VH: QVQLVQSGSELKKPGASVKVSCKASGYTFTEFGMNWVRQAPGQGLEWMGWINTKTGEATYVEEFKGRFVFSLDTSVSTAYLQISSLKAEDTAVYYCARWDFYDYVEAMDYWGQGTTVTVSS
VL: DIQMTQSPSSLSASVGDRVTITCKASKNVGTNVAWYQQKPGKAPKPLIYLASYPQIGVPSRFSGSGSGTDFTLTISSLQPEDFATYYCHQYYTYPLFTFGQGTKLEIK
Kd [8]: 700 nM

B10: anti-CEA antibody with heavy chain CH1A1B and light chain 2F1 (antibody, V domains shown)
VH: QVKLQQSGAEVKKPGASVKVSCKASGYTFTEFGMNWVRQAPGQGLEWMGWINTKTGEATYVEEFKGRVTMTTDTSTSTAYMELRSLRSDDTAVYYCARWDFYDYVEAMDYWGQGTTVTVSS
VL: DIQMTQSPSSLSASVGDRVTITCKASAAVGTYVAWYQQKPGKAPKLLIYSASYRKRGVPSRFSGSGSGTDFTLTISSLQPEDFATYYCHQYYTYPLFTFGQGTKLEIKR
EC50 (read off the curve) [5]: ~1 µg/mL
kon [6]: 53700 M⁻¹ s⁻¹
Kd [7]: 8.9 nM

B11: L2D2 (Fab, V domains shown)
VH: QVQLVQSGSELKKPGASVKVSCKASGYTFTEFGMNWVRQAPGQGLEWMGWINTKTGEATYVEEFKGRFVFSLDTSVSTAYLQISSLKAEDTAVYYCARWDFYDYVEAMDYWGQGTTVTVSS
VL: DIQMTQSPSSLSASVGDRVTITCKASHNVGTNVAWYQQKPGKAPKLLIYSASHRYSGVPSRFSGSGSGTDFTLTISSLQPEDFATYYCHQYYTYPLFTFGQGTKLEIK
Kd [8]: 2260 nM

B12: 3A1 (Fab, V domains shown)
VH: QVQLVQSGSELKKPGASVKVSCKASGYTFTEFGMNWVRQAPGQGLEWMGWINTKTGEATYVEEFKGRFVFSLDTSVSTAYLQISSLKAEDTAVYYCARWDFYDYVEAMDYWGQGTTVTVSS
VL: DIQMTQSPSSLSASVGDRVTITCKASANVGNNVAWYQQKPGKAPKLLIYLASNRSGGVPSRFSGSGSGTDFTLTISSLQPEDFATYYCHQYYTYPLFTFGQGTKLEIK
notes: also called pAC21 (3A1); 3A1 wt/lc
Kd [4]: 250 nM
koff [4]: 0.0117 s⁻¹
kon [4]: 46800 M⁻¹ s⁻¹
Kd [8]: 250 nM

B13: H3 Full (5) 27 (Fab, V domains shown)
VH: QVQLVQSGSELKKPGASVKVSCKASGYTFTEFGMNWVRQAPGQGLEWMGWINTKTGEATYVEEFKGRFVFSLDTSVSTAYLQISSLKAEDTAVYYCARWDFSYYVEAMDYWGQGTTVTVSS
VL: DIQMTQSPSSLSASVGDRVTITCKASQNVGTNVAWYQQKPGKAPKLLIYSASYRYSGVPSRFSGSGSGTDFTLTISSLQPEDFATYYCHQYYTYPLFTFGQGTKLEIK
Kd [3]: 132 nM

Reference: US20230365711A1 (Hoffmann-La Roche, published 2023)
